Experimental findings from PMC10783487 (Nucleic Acids Research, 2023) are described below.

This series concerns the molecule itself. As to the kind of experiment: crystal structure.

What is called stoichiometry N is the number of molecules, sites or subunits per partner or assembly.

B1: Thermoanaerobacter brockii Can2 E341A mutant (TbrCan2^E341A), catalytically inactive (enzyme)
chain: MNEKVLVLIVGTNPLPNYVVGSHLKEKYDKFVLIYSEKNDKINQNSTYDYAKKLKEHLNLNDKCIFLPLSDVSNSEKIINDLREKFPSEDFVEVHLNYTGGTKTMVVHIYNFLKEKFKNNKIKFEGSYLDARDYKLVYDYSEEAISLKDTIKIDINTLLSIHLYEDIHFEFYDTYSYKQKFVDSFDKISQEIEKAIKDDKGEDFVKWLEDPFRKIFKGENKLLEKTAKFKKHIEKLLKDNDSSPIVKFNEKTPQFIWDILNAFPEGKKLNDGQKLWIPDDKITNDNLSSRVKDTVEFLNGKWFEWYVYSQIKSELLDRKLKEGEHFGISLKAQKKDSPYFALDIFLINGYQLIGISLTTSSTRELCKLKGFEVIHRVRQIGGDESKAILITGMDKSKTEDLQKDLAYETGSTQKRFVVFGIDDWADIGSKICEEVFK
Regarding B1, the “stoichiometry N” value was found to be 2.
